Test results taken from patent US20240132578A1.
Several values for one entry are separate records, joined by “and”; a condition that tells them apart may be missing. Identical values can stand only once.

Key:
Test in all cases: cell-based or functional assay
[1] = molecular target: HIV-1 Env of pseudovirus 92BR020 (HIV-1)
[2] = molecular target: HIV-1 Env of pseudovirus 94UG103 (HIV-1)
[3] = molecular target: HIV-1 Env of pseudovirus JRCSF (HIV-1) (UniProt P20871)
[4] = molecular target: HIV-1 Env of pseudovirus MGRM-C-26 (HIV-1)
[5] = molecular target: HIV-1 Env of pseudovirus 93IN905 (HIV-1)
[6] = molecular target: HIV-1 Env of isolate 93MW959 (subtype C) (HIV-1)
[7] = molecular target: HIV-1 Env of isolate 97ZA012 (subtype C) (HIV-1)
[8] = molecular target: HIV-1 Env of isolate 98IN022 (subtype C) (HIV-1)
[9] = molecular target: HIV-1 Env of isolate MGRM-C-001 (subtype C) (HIV-1)
[10] = molecular target: HIV-1 Env of isolate MGRM-C-002 (subtype C) (HIV-1)
[11] = molecular target: HIV-1 Env of isolate MGRM-C-004 (subtype C) (HIV-1)
[12] = molecular target: HIV-1 Env of isolate MGRM-C-005 (subtype C) (HIV-1)
[13] = molecular target: HIV-1 Env of isolate MGRM-C-006 (subtype C) (HIV-1)
[14] = molecular target: HIV-1 Env of isolate MGRM-C-007 (subtype C) (HIV-1)
[15] = molecular target: HIV-1 Env of isolate MGRM-C-008 (subtype C) (HIV-1)
[16] = molecular target: HIV-1 Env of isolate MGRM-C-009 (subtype C) (HIV-1)
[17] = molecular target: HIV-1 Env of isolate MGRM-C-010 (subtype C) (HIV-1)
[18] = molecular target: HIV-1 Env of isolate MGRM-C-012 (subtype C) (HIV-1)
[19] = molecular target: HIV-1 Env of isolate MGRM-C-013 (subtype C) (HIV-1)
[20] = molecular target: HIV-1 Env of isolate MGRM-C-014 (subtype C) (HIV-1)
[21] = molecular target: HIV-1 Env of isolate MGRM-C-015 (subtype C) (HIV-1)
[22] = molecular target: HIV-1 Env of isolate MGRM-C-017 (subtype C) (HIV-1)
[23] = molecular target: HIV-1 Env of isolate MGRM-C-019 (subtype C) (HIV-1)
[24] = molecular target: HIV-1 Env of isolate MGRM-C-020 (subtype C) (HIV-1)
[25] = molecular target: HIV-1 Env of isolate MGRM-C-022 (subtype C) (HIV-1)
[26] = molecular target: HIV-1 Env of isolate MGRM-C-023 (subtype C) (HIV-1)
[27] = molecular target: HIV-1 Env of isolate MGRM-C-024 (subtype C) (HIV-1)
[28] = molecular target: HIV-1 Env of isolate MGRM-C-025 (subtype C) (HIV-1)
[29] = molecular target: HIV-1 Env of isolate MGRM-C-026 (subtype C) (HIV-1)
[30] = molecular target: HIV-1 Env of isolate MGRM-C-027 (subtype C) (HIV-1)
[31] = molecular target: HIV-1 Env of isolate MGRM-C-028 (subtype C) (HIV-1)
[32] = molecular target: HIV-1 Env of isolate MGRM-G-001 (subtype G), on pseudovirus (HIV-1)
[33] = molecular target: HIV-1 Env of isolate MGRM-G-004 (subtype G), on pseudovirus (HIV-1)
[34] = molecular target: HIV-1 Env of isolate MGRM-G-006 (subtype G), on pseudovirus (HIV-1)
[35] = molecular target: HIV-1 Env of isolate MGRM-G-009 (subtype G), on pseudovirus (HIV-1)
[36] = molecular target: HIV-1 Env of isolate MGRM-G-011 (subtype G), on pseudovirus (HIV-1)
[37] = molecular target: HIV-1 Env of isolate MGRM-G-013 (subtype G), on pseudovirus (HIV-1)
[38] = molecular target: HIV-1 Env of isolate MGRM-G-014 (subtype G), on pseudovirus (HIV-1)
[39] = molecular target: HIV-1 Env of isolate MGRM-G-015 (subtype G), on pseudovirus (HIV-1)
[40] = molecular target: HIV-1 Env of isolate MGRM-G-016 (subtype G), on pseudovirus (HIV-1)
[41] = molecular target: HIV-1 Env of isolate MGRM-G-017 (subtype G), on pseudovirus (HIV-1)
[42] = molecular target: HIV-1 Env of isolate MGRM-G-019 (subtype G), on pseudovirus (HIV-1)
[43] = molecular target: HIV-1 Env of isolate MGRM-G-024 (subtype G), on pseudovirus (HIV-1)
[44] = molecular target: HIV-1 Env of isolate MGRM-G-025 (subtype G), on pseudovirus (HIV-1)
[45] = molecular target: HIV-1 Env of isolate MGRM-G-027 (subtype G), on pseudovirus (HIV-1)
[46] = molecular target: HIV-1 Env of isolate MGRM-G-028 (subtype G), on pseudovirus (HIV-1)
[47] = molecular target: aMLV envelope, on pseudovirus (negative control)

B1: Antibody of B cell culture well 4869_K15 (antibody, V domains shown)
VH: QVHLQESGPGLVTPSETLSLTCTVSNGSVSGRFWSWIRQSPGRGLEWIGYFSDTDRSEYNPSLRSRLTLSVDRSKNQLSLRLKSVTAADSATYYCARAQQGKRIYGIVSFGEFFYYYYMDAWGKGTPVTVSS
VL: SLNPLSLAPGATAKIPCGERSRGSRAVQWYQQKPGQAPTLIIYNNQDRPAGVSERFSGNPDVAIGVTATLTISRVEVGDEADYYCHYWDSRSPISWIFGGGTQLTVL
- Primary Neutralization Index (B cell culture supernatant) [1]: 3.9
- Primary Neutralization Index (B cell culture supernatant) [2]: 1.5
- Primary Neutralization Index (B cell culture supernatant) [3]: 2.1
- Primary Neutralization Index (B cell culture supernatant) [4]: 104

B2: PGT-136 (B cell culture wells 5366_P21 and 5329_C19) (antibody, V domains shown)
VH: QLQLQESGPGLVKPSETLSLTCTVSGGSMRGTDWGENDFHYGWIRQSSAKGLEWIGSIHWRGRTTHYKTSFRSRATLSIDTSNNRFSLTFSFVTAADTAVYYCARHKYHDIFRVVPVAGWFDPWGQGLLVTVSS
VL: EIVMTQSPPTLSVSPGETATLSCRASQNVKNNLAWYQLKPGQAPRLLIFDASSRAGGIPDRFSGSGYGTDFTLTVNSVQSEDFGDYFCQQYEEWPRTFGQGTKVDIK
- Primary Neutralization Index (B cell culture supernatant) [5]: 5.5 and 5.6
- Primary Neutralization Index (B cell culture supernatant) [3]: 1.1 and 0.9
- Primary Neutralization Index (B cell culture supernatant) [4]: 6.2 and 6

B3: PGT-123 (B cell culture well 4858_P8) (antibody, V domains shown)
VH: QLHLQESGPGLVKPPETLSLTCSVSGASINDAYWSWIRQSPGKRPEWVGYVHHSGDTNYNPSLKRRVTFSLDTAKNEVSLKLVDLTAADSATYFCARALHGKRIYGIVALGELFTYFYMDVWGKGTAVTVSS
VL: SSMSVSPGETAKISCGKESIGSRAVQWYQQKPGQPPSLIIYNNQDRPAGVPERFSASPDFRPGTTATLTITNVDAEDEADYYCHIYDARGGTNWVFDRGTTLTVL
- Primary Neutralization Index (B cell culture supernatant) [1]: 2.8
- Primary Neutralization Index (B cell culture supernatant) [2]: 1.1
- Primary Neutralization Index (B cell culture supernatant) [3]: 1.6
- Primary Neutralization Index (B cell culture supernatant) [4]: 33.8

B4: PGT-127 (antibody, V domains shown)
VH: QPQLQESGPGLVEASETLSLTCTVSGDSTGRCNYFWGWVRQPPGKGLEWIGSLSHCRSYYNTDWTYHNPSLKSRLTISLDTPKNQVFLRLTSVTAADTATYYCARFGGEVLVYRDWPKPAWVDLWGRGTLVVTVS
VL: QSALTQPPSASGSPGQSITISCTGTSNNFVSWYQQYPGKAPKLVIYEVNKRPSGVPDRFSGSKSGSTASLTVSGLQADDEGVYYCSSLVGNWDVIFGGGTKLTVL
- IC50 (µg/mL), pseudovirus neutralization [6]: 6.95 µg/mL
- IC50 (µg/mL), pseudovirus neutralization [7]: > 50 µg/mL
- IC50 (µg/mL), pseudovirus neutralization [8]: 19.2 µg/mL
- IC50 (µg/mL), pseudovirus neutralization [9]: > 50 µg/mL
- IC50 (µg/mL), pseudovirus neutralization [10]: 0.057 µg/mL
- IC50 (µg/mL), pseudovirus neutralization [11]: 0.532 µg/mL
- IC50 (µg/mL), pseudovirus neutralization [12]: 0.57 µg/mL
- IC50 (µg/mL), pseudovirus neutralization [13]: 0.319 µg/mL
- IC50 (µg/mL), pseudovirus neutralization [14]: > 50 µg/mL
- IC50 (µg/mL), pseudovirus neutralization [15]: > 50 µg/mL
- IC50 (µg/mL), pseudovirus neutralization [16]: > 50 µg/mL
- IC50 (µg/mL), pseudovirus neutralization [17]: > 50 µg/mL
- IC50 (µg/mL), pseudovirus neutralization [18]: 1.07 µg/mL
- IC50 (µg/mL), pseudovirus neutralization [19]: > 50 µg/mL
- IC50 (µg/mL), pseudovirus neutralization [20]: > 50 µg/mL
- IC50 (µg/mL), pseudovirus neutralization [21]: > 50 µg/mL
- IC50 (µg/mL), pseudovirus neutralization [22]: 3.4 µg/mL
- IC50 (µg/mL), pseudovirus neutralization [23]: 0.017 µg/mL
- IC50 (µg/mL), pseudovirus neutralization [24]: > 50 µg/mL
- IC50 (µg/mL), pseudovirus neutralization [25]: 0.41 µg/mL
- IC50 (µg/mL), pseudovirus neutralization [26]: 1.08 µg/mL
- IC50 (µg/mL), pseudovirus neutralization [27]: > 50 µg/mL
- IC50 (µg/mL), pseudovirus neutralization [28]: > 50 µg/mL
- IC50 (µg/mL), pseudovirus neutralization [29]: 0.014 µg/mL
- IC50 (µg/mL), pseudovirus neutralization [30]: > 50 µg/mL
- IC50 (µg/mL), pseudovirus neutralization [31]: 7.57 µg/mL
- IC50 (µg/mL), neutralization of pseudovirus [32]: 0.113 µg/mL
- IC50 (µg/mL), neutralization of pseudovirus [33]: > 50 µg/mL
- IC50 (µg/mL), neutralization of pseudovirus [34]: > 50 µg/mL
- IC50 (µg/mL), neutralization of pseudovirus [35]: > 50 µg/mL
- IC50 (µg/mL), neutralization of pseudovirus [36]: > 50 µg/mL
- IC50 (µg/mL), neutralization of pseudovirus [37]: 7.7 µg/mL
- IC50 (µg/mL), neutralization of pseudovirus [38]: 0.009 µg/mL
- IC50 (µg/mL), neutralization of pseudovirus [39]: > 50 µg/mL
- IC50 (µg/mL), neutralization of pseudovirus [40]: > 50 µg/mL
- IC50 (µg/mL), neutralization of pseudovirus [41]: > 50 µg/mL
- IC50 (µg/mL), neutralization of pseudovirus [42]: 0.429 µg/mL
- IC50 (µg/mL), neutralization of pseudovirus [43]: > 50 µg/mL
- IC50 (µg/mL), neutralization of pseudovirus [44]: 19.3 µg/mL
- IC50 (µg/mL), neutralization of pseudovirus [45]: > 50 µg/mL
- IC50 (µg/mL), neutralization of pseudovirus [46]: 0.032 µg/mL
- IC50 (µg/mL), neutralization of pseudovirus [47]: > 50 µg/mL

B5: PGT-137 (B cell culture well 5345_I1) (antibody, V domains shown)
VH: EVHLEESGPGLVRPSETLSLTCTASGGSIRGGEWGDSDYHWGWVRHSPEKGLEWIGSIHWRGTTHYNAPFRGRGRLSIDLSRNQFSLRLTSVTAEDTAVYYCVKHKYHDIVMVVPIAGWFDPWGQGLQVTVSS
VL: EIMMTQSPAILSVSPGDRATLSCRASQSVKNNLAWYQKRPGQAPRLLIFDTSSRASGIPARFSGGGSGTEFTLTVNSMQSEDFATYYCQQYEEWPRTFGQGTKVEIK
- Primary Neutralization Index (B cell culture supernatant) [5]: 3.3
- Primary Neutralization Index (B cell culture supernatant) [3]: 1.1
- Primary Neutralization Index (B cell culture supernatant) [4]: 11.3
